One molecule from US6982321 can be followed below.

Bounds are passed on as bounds.

For this assay, the target named is isolated VL-domain of the reshaped anti-lysozyme Fv-fragment (HuVLLYS). The assay is described as follows: formaldehyde crosslinking of Fv, overloaded SDS gel.

B1: isolated VL-domain of the reshaped anti-lysozyme Fv-fragment (HuVLLYS) (protein)
VL: DIQMTQSPSSLSASVGDRVTITCRASGNIHNYLAWYQQKPGKAPKLLIYYTTTLADGVPSRFSGSGSGTDFTFTISSLQPEDIATYYCQHFWSTPRTFGQGTKVEIK
In turn, B1 had a fraction of crosslinked material below 5%.
